Measurements reported in article PMC9129000, “RADA-dependent branch migration has a predominant role in plant mitochondria and its defect leads to mtDNA instability and cell cycle arrest”.
One block for each molecule: values may come before it.

Experiments:
[1] = biological target: Arabidopsis RADA recombinant protein (His-tagged, WT) (Arabidopsis thaliana); test: dynamic light scattering; protein fraction of gel filtration peak 2 (the smaller oligomer)
RADA [2] = biological target: T1, RADA (Arabidopsis thaliana, UniProt F4K8X8 49-627); test: competition; competes as efficiently as homologous 30-mer; 20 mM Tris-HCl pH 7.5, 50 mM KCl, 5 mM MgCl2, 0.5 mM EDTA, 10% glycerol, 1 mM DTT, protease inhibitors; 20 C, 20 min; 8 or 4.5% PAGE in TBE at 4 C; settings: protein: recombinant; tags: N-terminal His (pET28a); chain copies: 6; single strand
T1 sequence: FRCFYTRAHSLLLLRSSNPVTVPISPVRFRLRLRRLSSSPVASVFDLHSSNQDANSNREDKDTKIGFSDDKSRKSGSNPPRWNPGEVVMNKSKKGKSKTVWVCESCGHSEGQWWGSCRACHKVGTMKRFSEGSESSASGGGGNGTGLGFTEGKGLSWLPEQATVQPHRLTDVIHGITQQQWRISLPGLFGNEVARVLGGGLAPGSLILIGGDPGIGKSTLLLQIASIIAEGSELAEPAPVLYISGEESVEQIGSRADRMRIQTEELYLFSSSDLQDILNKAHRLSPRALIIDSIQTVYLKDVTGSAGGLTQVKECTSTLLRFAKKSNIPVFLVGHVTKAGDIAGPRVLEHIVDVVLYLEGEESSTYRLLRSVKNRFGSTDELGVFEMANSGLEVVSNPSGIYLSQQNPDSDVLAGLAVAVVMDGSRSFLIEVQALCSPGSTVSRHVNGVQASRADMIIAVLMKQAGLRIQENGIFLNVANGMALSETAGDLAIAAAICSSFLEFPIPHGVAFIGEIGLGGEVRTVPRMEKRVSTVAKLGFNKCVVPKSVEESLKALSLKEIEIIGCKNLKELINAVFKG

RADA [3] = biological target: T1, RADA; test: EMSA; probe and homologous competitor; 20 mM Tris-HCl pH 7.5, 50 mM KCl, 5 mM MgCl2, 0.5 mM EDTA, 10% glycerol, 1 mM DTT, protease inhibitors; 20 C, 20 min; 8 or 4.5% PAGE in TBE at 4 C; settings: protein: recombinant; tags: N-terminal His (pET28a); chain copies: 6; label: 5'-32P as probe; single strand
RADA [4] = biological target: T1, RADA; test: EMSA; 20 mM Tris-HCl pH 7.5, 50 mM KCl, 5 mM MgCl2, 0.5 mM EDTA, 10% glycerol, 1 mM DTT, protease inhibitors; 20 C, 20 min; 8 or 4.5% PAGE in TBE at 4 C; settings: protein: recombinant; tags: N-terminal His (pET28a); chain copies: 6; label: 5'-32P; single strand

- stoichiometry N [1]: 6
Molecule: Arabidopsis RADA recombinant protein (His-tagged, WT) (enzyme)

B1: poly-dT 30-mer (ssDNA)
DNA: TTTTTTTTTTTTTTTTTTTTTTTTTTTTTT
- binding result (RADA [2]): binds

B2: EMSA 30-mer 7x[AGTC]AG (ssDNA)
DNA: AGTCAGTCAGTCAGTCAGTCAGTCAGTCAG
- binding result (RADA [3]): binds

B3: EMSA ssDNA (ssDNA)
DNA: GACGCTGCCGAATTCTACCAGTGCCTTGCTAGGACATCTTTGCCCACCTGCAGGTTCACCC
- binding result (RADA [4]): binds
